Assay results: IntAct's records for PubMed 17721446

B1: DNA repair protein RAD9 (Saccharomyces cerevisiae), P14737 (parent)
chain: MSGQLVQWKSSPDRVTQSAIKEALHSPLADGDMNEMNVPVDPLENKVNSTNIIEGSPKANPNPVKFMNTSEIFQKSLGLLDESPRHDDELNIEVGDNDRPNANILHNERTPDLDRIANFFKSNRTPGKENLLTKYQSSDLEDTPLMLRKKMTFQTPTDPLEQKTFKKLKSDTGFCYYGEQNDGEENASLEVTEADATFVQMAERSADNYDCALEGIVTPKRYKDELSKSGGMQDERVQKTQIMISAESPNSISSYDKNKITGNGRTTRNVNKVFNNNEDNIGAIEEKNPVKKKSENYSSDDLRERNNQIIQSNESEEINELEKNLNVSGRENDVNNLDIDINSAVSGTPSRNNAEEEMYSSESVNNREPSKKWIFRYSKDKTENNSNRSTQIVNNPRTQEMPLDSISIDTQPLSKSFNTETNNELETQIIVSSLSQGISAQKGPVFHSTGQTEEIKTQIINSPEQNALNATFETPVTLSRINFEPILEVPETSSPSKNTMSKPSNSSPIPKEKDTFNIHEREVETNNVFSNDIQNSSNAATRDDIIIAGSSDFNEQKEITDRIYLQLSGKQISDSGSDETERMSPNELDTKKESTIMSEVELTQELPEVEEQQDLQTSPKKLVVEEETLMEIKKSKGNSLQLHDDNKECNSDKQDGTESLDVALIEHESKGQSSELQKNLMQLFPSESQEIIQNRRTIKRRQKDTIEIGEEEENRSTKTSPTKHLKRNSDLDAASIKREPSCSITIQTGETGSGKDSKEQSYVFPEGIRTADNSFLSKDDIIFGNAVWCQYTWNYKFYPGILLEVDTNQDGCWIYFETGRSLTKDEDIYYLDIRIGDAVTFDGNEYVVVGLECRSHDLNIIRCIRGYDTVHLKKKNASGLLGKRTLIKALSSISLDLSEWAKRAKIILEDNEKNKGDAYRYLRHPIRGRKSMTNVLSPKKHTDDEKDINTHTEVYNNEIESSSEKKEIVKKDSRDALAEHAGAPSLLFSSGEIRTGNVFDKCIFVLTSLFENREELRQTIESQGGTVIESGFSTLFNFTHPLAKSLVNKGNTDNIRELALKLAWKPHSLFADCRFACLITKRHLRSLKYLETLALGWPTLHWKFISACIEKKRIVPHLIYQYLLPSGESFRLSLDSPSKGGIIKSNNIFSFYTQFLRGSNLRDQICGVKKMLNDYIVIVWGRSELDSFVKFAFACLSAGRMLTIDLPNIDVDDTEPLLNALDSLVPRIGSELSNRKLKFLIYANENNGKSQMKLLERLRSQISLKFKKFNYIFHTESKEWLIQTIINEDTGFHDDITDNDIYNTISEVR

Variants of: B1
Conditions: with h2a1_yeast HTA1, P04911
Chain of h2a1_yeast HTA1, P04911 (P04911 whole entry): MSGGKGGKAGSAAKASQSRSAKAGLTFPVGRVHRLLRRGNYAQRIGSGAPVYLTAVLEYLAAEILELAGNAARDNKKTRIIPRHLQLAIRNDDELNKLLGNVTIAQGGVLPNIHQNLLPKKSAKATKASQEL

Row | Variant | effect of a mutation on the interaction
1 | K1088M | disrupting interaction
